Assay results: the nanobody polyreactivity screen of Harvey et al. (2022)

Assay: yeast display, Sf9 membrane polyspecificity reagent, FACS + sequencing; frameworks hold sequencing errors
Procedure, shortened: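 Galactose induction of a Saccharomyces cerevisiae BJ5465 synthetic nanobody display library ran 36–48 hours. The cells were then stained for 1 hour at 4 °C with 10% biotinylated, detergent-solubilized Sf9 membrane reagent, pulled down on streptavidin microbeads and FACS-sorted into low and high (top ~1%) gates on expression and reagent-binding fluorescence. Labels for polyreactivity follow the gate of origin.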

Row | Sequence | polyreactivity (PSR sort gate)
1 | QVQLVESGGGLVQAGGSLRLSCAASGSTFAEYAMGWYRQAPGKERELVAAIRWSGGSTSYADSVKGRFTISRDNAKNTVYLQMNSLKPEDTAVYYCAAERFWYDGEVKLYVLSYYWGQGTQVTVSS | low polyreactivity
2 | QVQLVESGGGLVQAGGSLRLSCAASGFIFDKNAMGWYRQAPGKERELVAAITSSGGSTYADSVKGRFTISRDNAKNTVYLQMNSLKPEDTAVYYCAARWYRPWYVTDSGDDYWGQGTQVTVSS | low polyreactivity
3 | QVQLVESAGGLVQAGGSLRLSCAASGLTFVRYGMGWYRQAPGKERELVAAITSDDSTYYADSVKGSFTISRDNAQNTVYLQMNSLNPEDTAVYYCAARYTLYDTGESSRTYTGFIYWGLGTQVTVSS | low polyreactivity
4 | QVQLVESGGGLVQAGGSLRLSCAASGLIFKSYAMGWSRQAPGKERELVAVISSSGGSTYYADSVKGRFTISRDNAKNTVYLQMNSLKPEDTAVYYCAARSTYRTGDYWGQGTQVTVSS | high polyreactivity
5 | QVQLVESGGGLVQAGGSLRLSCAASGSTLDDYVMGWYRQAPGKERELVAAISSSGSGTYYADSVKGRFTISRDNAKNTVYLQMNSLKPEDTAVYYCAAAYSYSGYGYYTYDYWGQGTQVTVSS | low polyreactivity
6 | QVQLVESGGGLVQAGGSLRLSCAASGSTLYYYTMGWYRQAPGKERELVAAINWSGTITYYADSVKGRFTISRDNAKNTVYLQMNSLKPEDTAVYYCNAVYYRQGFDYWGQGTQVTVSS | high polyreactivity
7 | LVQLVESGGCLVQAGGSLRVSCAASGTIFQIKAMGWYRQAPGIEREKVATIRWRGSSTYYADSVKGRFTISRDNAKNTVYLQKNSLKPEDTAVYYSAARAGTLNSGGYYSWGQGTQVSVSS | high polyreactivity
8 | QVQLVESGGGLLQAGGSLRLSCAASGRTFYRYAMGWYRQAPGKERELVAAITWSGGSTYYADSVKGRFTTSRDNAKNTVYLQMNSLKPEDTAVYYCARRLYPYRPTAYDYWGQGTQVTVSS | low polyreactivity
9 | QVQLVESGGGLVQAGGSLRLSCAASGRTFVANDMAWYTHAPGKERELFAAISYSGGSTYYADSVKGRFTISRDNAKNTVYLQMNSLKPEDTEVYYCNAYYYGGVRKQHGYWGQVTQVTVSS | low polyreactivity
10 | QVQLVESGGGLVQAGGSLRLSCAASGSTFRYYAMGWYRQAPGKERELVAAISRSGGRTYYADSVKGRFTISRDNAKNTAYLQMNRLKPEDTAVYYCAVVVWWFTGCLGPYDYWGKGTQVTVSS | high polyreactivity
11 | QVQLVESGGGLVQAGGSLRLSCAASGRIFRNYGMGWYRQAPGKERELVATITWTGGSTFYADSVKGRFTISRDNAKNTVYLQMNSLKPEDTAVYYCAAEWHRLIYFSPRYDFDYWGQGTQVTVSS | low polyreactivity
12 | QVQHVESVGRLVQAGGSLLLSCAASGSTFWIYAMGWKRQAPVKERELVAAISWRGGRTYYADSVKGRFTISRDNAKNTVYLQMYSLKPEDTGVYYCNAQKRDVSMGYWGLGTQVTVSS | high polyreactivity
13 | QVQLVESGGGLVQAGGSLRLSCAPSGSTFARNAMGWYRQAPGKERDLVAAIATSGGRTYYADTVKGRFTISRDIAKNTVYLQMNSLKAEDTAVYYCAAAFSLGMYWGQGTQVTVSS | high polyreactivity
14 | QVNLVESGGGLVLAGGSLRLSCAASGRIYRRNTMGWYRPAPGKERELVAAITSSGGSTYADSVKGRFTISRDNAKNTVYLQMNSLKPEDTAVYYCDTYVAYHRGYRTYDHWGQGTQVTVSS | low polyreactivity
15 | QVQLVESGGGLVQAGGSLRLSCAASGSTFGYYAMRWSRQAPGKERELVAAISGSGGSTYYADSVKGRFTISRDNAKNTVYLQMNSLKQEDTAVYYCATSWAGSEYYYWGQGTQVTVSS | high polyreactivity
16 | QVQLVESGGGLVQAGGSLRLSCAASGSTFEGYAMGWYRQAPGKEMELVAAISSSGGTTNYADSVKGRFTISRDNAKNTVYLQMNSLKPEDTAVYYCAARKYAKYFYHYDYWGQGTQVTVSS | low polyreactivity
17 | QDQLVESGGGLVQAGGSLRLSCAASGGIIVSYAMGWYRQAPGKEMQLVAAITSGGGTSYSDSVKGRFTISRDNAKNTVYLQMNSLKPEDTAVYYCNADGYLAERFVIRLDEYRHYDYWGQGTQVTVSS | low polyreactivity
18 | QVQLVESGGGLVQEGGSLRLSCAASGSIFRVNTMGWYRQAPGKERELVATISSGARTNYADSVKGRFTISRDNAKNTVYLQMNSLKPEDTAVYYCAADRSWGYPRWFTSRYDYWGQGTQVTVSS | high polyreactivity
19 | QVQLVESGGGLVQAGGSLRLICAASGLTFGDYTMGWYRQAPGKERELVAAISTSGGSTYYADSVKGRFTISRDNAKKTVYLLMNSLKPEDTAVYYCNARRTHTRSHYYYWGQGTQVTVSS | high polyreactivity
20 | QVQLVESGGGLVQAGGSLRLSCAASGRIFPAYAMGWYRKAPGKETELVAAISWRSGSTYYAHSVKGRFTISRDNAKNTVYLQMNSLKPEDTAVYYCAAEYDWPGYDYWGQGTQVTVSS | high polyreactivity
21 | QDQLVESGGWLVQAGGTLRLSCAASGRILWFYAMGWYRQAPGKERELVASISGSGGSTFYADSVKGRFTISRDNAKNTVYLQMNRLKPEDTAVYYCAAYKEPYYEEYGYWGQGTQVTVSS | low polyreactivity
22 | QVHLVESVGGLLQAGGSLPLSCPASGSTFYDYAMGWYRPAPGKERELVASITTGGDSTYYADSVKGRFTISRDNAKNSVYLQMKSLIPEDSAVYYFNADWYYWFSNYQGAPEMDYWGQGTQVSVSS | high polyreactivity

Row | Sequence | polyreactivity (PSR sort gate)
23 | QVQLVDSGGGLVQAGGSLRLSCAASGRIFIGYAMGWNRQAPWRERELVAAITSGGGTYYADSVKARFTISRDNAKNTVYLQMNSLKPEDTAVYFCAGAQRYPIKYYFWGQGTQVTVSS | low polyreactivity
24 | QVHLVESVGRLVQEGGSLRLICAASAFNIYTYAMGWSRQAPGKEREMVAAISKSGGSTYSADSVKGRFTISRDNAKNTVYVQMNSLKPVDTAVYYCAVSDARHLGSGRYYWCQGTQVTVSS | low polyreactivity
25 | QVQLVESGGGLVQTGGILRLSCAASGRIFYYNAMGWYRQEPGKERDFFAAITSSSGSSTYYADSVKGRFTISLDNAKNTVYLQMNSLKPEVTAVYYCAAVGTFIIRYLSRSSYWGQGTQVTVSS | low polyreactivity
26 | QVQLVESGGGLVQAGGSLRLSCAASGFIFYGNTMGWYRQAPGKERELVAAISWSGGTTYYADSVKGRFTISRDNAKNTVYLQMNSLKPEDTAVYYCNRAAFRYRYDYWGQGTQVTVSS | high polyreactivity
27 | QVQLVESGGGLVQAGGSLRLSCAASGRIFTRYAMGWYRQAPGKERELVATITKSGGSTYYADSVKGRFTISRDNAKNTVYLQMNSLKPEDTAVYYFAADSWWTYQYDYWGQGTQVTVSS | low polyreactivity
28 | QVQLVESGGGLVQAGGSLRLSCAASGSIFDDYAMGWYRQAPGKEREFVADISYNGGTTYSADSVKGRFTISRDNAKNTVYLQMNSLKPEDTAVYYCAADRTNYTYYLPYDYWGPGTQVTVSS | low polyreactivity
29 | QVQLVESGGGLVQAGGSLRLSCAASGRIFYFYAMGWYRQAPGKEREMVASISYSGGNTYYADSVKGRFTISRDNAKNTVYLQMNSLKPEDTAVYYCNVLPNTGARGYYYWGQGTQVTVSS | low polyreactivity
30 | QVQLVESGGGLVQAGGSLRLSCAASGITFERYAMGWYRQAPGKERELVAAITYRGGSTYYADSVKGRFTISRDNAKNTVYLQMNSLKPEDTAVYYCNRARLRGAYIYWGQGTQVTVSS | high polyreactivity
31 | QVQLVESGGGLVQAGGSLRLSCAASGTFFGYAMGWYRQAPGKERELVAAITSGGSTYYADSVKGRFTISRDNAKNTVYLQMNSLKPEVTAVYYCARVYSRWSYRYDYWGQGTQVTVSS | low polyreactivity
32 | QVQLVESGGGLVQAGGSLRLSCAASGRIFYRYAMGWYRQAPGKERELVAAIRYSGGRTYYADSVKGRFTISRDNAKNTVYLQMNSLKPEDTAVYYCAARGWYKSDYWGQGTQVTVSS | low polyreactivity
33 | QVQLVESGGGLVQAGGSLRLSCAASGRTFYQYAMGWYRQAPGKERELVAAISRRGGTTYYADSVKGRFTISRDNAKNTVYLQMNSLKPEDTAVYYCAASSLPAGEMYYWGQGTQVTVSS | high polyreactivity
34 | QVQLVESGGGLVQAGGRLRLSCAASVFIFGIYASGWYRQAPGKDRELVAAITWDTGSTYYADSVKGRFTISRDNAKNTVYLQMNRLKPEDTAVYYRAVDGWDLTYYDSYYSWGQGTQVTVSS | high polyreactivity
35 | QVQLVESGGGLVQAGGSLRLSCAASGRTFGDYAMGWYRQAPGKERELVAAITIGGSTYYADSVKGRFTISRDNAKNTVYLQMNSLKPEDTAVYYCAATTYSIPSRYDSWGQGTQVNVSS | low polyreactivity
36 | QVQLVESGGGLDQAGGSLRLSCAASGRTFANAMGWYRQAPGKERELVAGITSGGGRTYYADSVKGRFTMSRDNAKNTVYLQMNSLKPEDTAVYYCNRATPPGRLKSDSWGQGTQVTVSS | high polyreactivity
37 | QVQLVDSAGGLVQAGGSLRLSCAASGRTYVVNTRGWSRQAPGKERELVASISSGTTNYADSVKGRFTISRDNAKNTVYLQMNSLKPVDTAVYYCNTDGGDHPTARYGYWGQGTQVTVSS | high polyreactivity
38 | QVQLVESGGGLVQAGGSLRLSCAASGNTFVTYAMGWYRQAPGKVRELVATISSSGGSTYYADSVKGRFTISRDNAKNTVYLQMNSLKPEDTAVYYCAKQAWAYALYTNFYSGDYGYWGQGTQVTVSS | low polyreactivity
39 | QVQLVESGGGLVQAGGSLRLICAASGRIFYPYAMGWYRPAPGKERELVATITRTGSTYYADSVKGRFTISRDNAKNTVYLHMNSLKPEDTAVYYCAVQRSYVGPRQYNYWGQGTQVTVSS | high polyreactivity
40 | QVQLVESGGGLVQAGGSLRLSCASSGRIFWTYAMGWYRQAPGKERELVAAITSGGSTYYADSVKGRFTISRDKAKNTVYLQMNSLKPEDTAVLYCAATSYYYNFLEHDYWGQGTQVTVSS | high polyreactivity
41 | QVQLVESGGGLVQAGGSLRLSCAASGRIFTSNTMGWNRQAPGKERELGAAITSSGGYMYYADSVKGRFTISRDNAKNTGYLQMNSLKPEDTAVYYCAADTIGYHYWYDYWGQGTQVTVSS | low polyreactivity
42 | QVQLVESGGGLVQAGGSLRISCAASGSIFWDNVMGWYRQAPGKERELVADIDSWDGGSTYYADSVKGRFTISRDNAKNTVYLQMNSLKPEDTAVYYCNTDVLWWRGGDDYWGQGTQVTVSS | low polyreactivity
43 | QVQLVESGGGLVQAGGSLRLSCAASGRIFTIYTMGWYRQAPGKERELVAAISVNGGRTYYADSVKGRFTISRDNAKNTVYLQMNSLKPEDTAVYYCAARRRFGYHQQRYDYWGQGTQVTVSS | high polyreactivity
